T1: FcγRIIa H (human, UniProt P12318 34-217)
T1 construct: extracellular domain; Soluble His-tagged extracellular domain expressed in FreeStyle293 cells; also called FcγRIIa type H; FcgRIIa H; not shown: His tag attached to the C terminus
T1 sequence (looked up): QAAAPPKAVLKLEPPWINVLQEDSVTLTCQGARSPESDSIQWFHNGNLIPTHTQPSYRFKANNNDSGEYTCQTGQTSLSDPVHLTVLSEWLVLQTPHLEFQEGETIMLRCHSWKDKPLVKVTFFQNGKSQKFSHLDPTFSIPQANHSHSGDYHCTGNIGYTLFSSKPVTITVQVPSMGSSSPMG

T2: FcγRIIb extracellular domain with C-terminal His tag (human, UniProt P31994 43-217)
T2 construct: extracellular domain; Soluble receptor expressed in FreeStyle293 cells and used as analyte in Biacore; also called FcgRIIb; 2b; not shown: His tag at the C terminus
T2 sequence (looked up): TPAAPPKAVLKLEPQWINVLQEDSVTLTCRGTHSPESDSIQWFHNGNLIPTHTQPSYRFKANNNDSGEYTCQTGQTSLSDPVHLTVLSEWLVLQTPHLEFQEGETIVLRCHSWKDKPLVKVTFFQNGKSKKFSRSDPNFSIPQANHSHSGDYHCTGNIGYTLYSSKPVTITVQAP

T3: FcγRIIb (human, UniProt P31994 43-217)
T3 construct: extracellular domain; Soluble His-tagged extracellular domain expressed in FreeStyle293 cells; also called FcgRIIb; 2b; not shown: His tag attached to the C terminus
T3 sequence (looked up): T2 sequence (looked up)

B1: GpH7-A5/GpH7-B3 variant N325_01G/GpL16-k0 (antibody, human IgG1, kappa)
heavy 1: not shown
heavy 2: not shown
light: DIVMTQSPLSLPVTPGEPASISCQASESLVHSNRNTYLHWYLQKPGQSPQLLIYKVSNRFSGVPDRFSGSGSGTDFTLKISRVEAEDVGVYYCSQNTHVPPTFGQGTKVEIERTVAAPSVFIFPPSDEQLKSGTASVVCLLNNFYPREAKVQWKVDNALQSGNSQESVTEQDSKDSTYSLSSTLTLSKADYEKHKVYACEVTHQGLSSPVTKSFNRGEC
notes: Heterodimerized anti-glypican-3 IgG1; mutation in the GpH7-B3 H chain only; also called He Ab
B2: GpH7-A5/GpH7-B3 variant K326_06M/GpL16-k0 (antibody, human IgG1, kappa)
heavy 1: not shown
heavy 2: not shown
light: B1 light
notes: as for B1
B3: GpH7-A5/GpH7-B3 variant K326_14T/GpL16-k0 (antibody, human IgG1, kappa)
heavy 1: not shown
heavy 2: not shown
light: B1 light
notes: as for B1
B4: GpH7-A5/GpH7-B3 variant N325_04F/GpL16-k0 (antibody, human IgG1, kappa)
heavy 1: not shown
heavy 2: not shown
light: B1 light
notes: as for B1
B5: GpH7-A5/GpH7-B3 variant N325_07I/GpL16-k0 (antibody, human IgG1, kappa)
heavy 1: not shown
heavy 2: not shown
light: B1 light
notes: as for B1
B6: GpH7-A5/GpH7-B3 variant N325_03V/GpL16-k0 (antibody, human IgG1, kappa)
heavy 1: not shown
heavy 2: not shown
light: B1 light
notes: as for B1
B7: GpH7-A5/GpH7-B3 variant N325_05P/GpL16-k0 (antibody, human IgG1, kappa)
heavy 1: not shown
heavy 2: not shown
light: B1 light
notes: as for B1
B8: GpH7-A5/GpH7-B3 variant N325_02A/GpL16-k0 (antibody, human IgG1, kappa)
heavy 1: not shown
heavy 2: not shown
light: B1 light
notes: as for B1
B9: GpH7-A5/GpH7-B3 variant N325_10E/GpL16-k0 (antibody, human IgG1, kappa)
heavy 1: not shown
heavy 2: not shown
light: B1 light
notes: as for B1
B10: GpH7-A5/GpH7-B3 variant K326_08L/GpL16-k0 (antibody, human IgG1, kappa)
heavy 1: not shown
heavy 2: not shown
light: B1 light
notes: as for B1
B11: GpH7-A5/GpH7-B3 variant N325_06M/GpL16-k0 (antibody, human IgG1, kappa)
heavy 1: not shown
heavy 2: not shown
light: B1 light
notes: as for B1
B12: GpH7-A5/GpH7-B3 variant K326_15Y/GpL16-k0 (antibody, human IgG1, kappa)
heavy 1: not shown
heavy 2: not shown
light: B1 light
notes: as for B1
B13: GpH7-A5/GpH7-B3 variant K326_20W/GpL16-k0 (antibody, human IgG1, kappa)
heavy 1: not shown
heavy 2: not shown
light: B1 light
notes: as for B1
B14: GpH7-A5/GpH7-B3 variant K326_10E/GpL16-k0 (antibody, human IgG1, kappa)
heavy 1: not shown
heavy 2: not shown
light: B1 light
notes: as for B1
B15: GpH7-A5/GpH7-B3 variant K326_19Q/GpL16-k0 (antibody, human IgG1, kappa)
heavy 1: not shown
heavy 2: not shown
light: B1 light
notes: as for B1
B16: GpH7-A5/GpH7-B3 variant N325_09D/GpL16-k0 (antibody, human IgG1, kappa)
heavy 1: not shown
heavy 2: not shown
light: B1 light
notes: as for B1
B17: GpH7-A5/GpH7-B3 variant N325_08L/GpL16-k0 (antibody, human IgG1, kappa)
heavy 1: not shown
heavy 2: not shown
light: B1 light
notes: as for B1
B18: GpH7-A5/GpH7-B3 variant K326_07I/GpL16-k0 (antibody, human IgG1, kappa)
heavy 1: not shown
heavy 2: not shown
light: B1 light
notes: as for B1
B19: GpH7-A5/GpH7-B3 variant K326_09D/GpL16-k0 (antibody, human IgG1, kappa)
heavy 1: not shown
heavy 2: not shown
light: B1 light
notes: as for B1
B20: heterodimerized antibody GpH7-A5/GpH7-B3 variant Y296_01G/GpL16-k0 (antibody, human IgG1, kappa)
heavy 1: not shown
heavy 2: not shown
light: B1 light
notes: Substitution in only one H chain (GpH7-B3 side); also called He Ab
B21: heterodimerized antibody GpH7-A5/GpH7-B3 variant S298_01G/GpL16-k0 (antibody, human IgG1, kappa)
heavy 1: not shown
heavy 2: not shown
light: B1 light
notes: as for B20
B22: heterodimerized antibody GpH7-A5/GpH7-B3 variant Q295_18N/GpL16-k0 (antibody, human IgG1, kappa)
heavy 1: not shown
heavy 2: not shown
light: B1 light
notes: as for B20
B23: heterodimerized antibody GpH7-A5/GpH7-B3 variant Q295_20W/GpL16-k0 (antibody, human IgG1, kappa)
heavy 1: not shown
heavy 2: not shown
light: B1 light
notes: as for B20
B24: heterodimerized antibody GpH7-A5/GpH7-B3 variant S298_02A/GpL16-k0 (antibody, human IgG1, kappa)
heavy 1: not shown
heavy 2: not shown
light: B1 light
notes: as for B20
B25: heterodimerized antibody GpH7-A5/GpH7-B3 variant Q295_16H/GpL16-k0 (antibody, human IgG1, kappa)
heavy 1: not shown
heavy 2: not shown
light: B1 light
notes: as for B20
B26: GpH7-A5/GpH7-B3 variant S337_15Y/GpL16-k0 (antibody, human IgG1, kappa)
heavy 1: not shown
heavy 2: not shown
light: B1 light
notes: as for B1
B27: GpH7-A5/GpH7-B3 variant S337_18N/GpL16-k0 (antibody, human IgG1, kappa)
heavy 1: not shown
heavy 2: not shown
light: B1 light
notes: as for B1
B28: GpH7-A5/GpH7-B3 variant K334_20W/GpL16-k0 (antibody, human IgG1, kappa)
heavy 1: not shown
heavy 2: not shown
light: B1 light
notes: as for B1

biological target: T1, FcγRIIa H; assay: SPR (Biacore); He/Con_2aH divided by He/Con_2b (FcγRIIb) of the same antibody
Method: (§1) The heterodimerized antibodies He Abs in which one of the H chains was introduced with an alteration were assayed for their binding activities to each activating FcγR and inhibitory FcγR according to the method described in Example 4. […] The activating FcγRs in FIGS. 26, 27, 28, and 29 are FcγRIa, FcγRIIa (R), FcγRIIa (H), and FcγRIIIa, respectively.
(§2) Analysis of interaction between objective antibody and the FcγR was carried out using Biacore T100 (GE Healthcare). HBS-EP+ (GE Healthcare) was used as the running buffer, and the measurement temperature was set to 25° C. Chips produced by immobilizing the antigen peptide by the amine coupling method to a Series S Sencor Chip CM5 (GE Healthcare), or alternatively, chips produced by allowing preliminarily biotinylated antigen peptides to interact with and immobilize onto a Series S Sensor Chip SA (certified) (GE Healthcare) were used. Antibodies of interest were captured onto an antigen peptide-immobilized chip, and allowed to interact to each FcγR diluted with running buffer. To regenerate and repeatedly use the chip, the antibodies captured on the chip were washed off by reacting 10 mM glycine-HCl, pH 1.5.

| Binder | He_2aH/2b [ratio] |
| --- | --- |
| B1 | 0.56 |
| B2 | 0.63 |
| B3 | 0.77 |
| B4 | 0.23 |
| B5 | 0.22 |
| B6 | 0.41 |
| B7 | 0.8 |
| B8 | 0.74 |
| B9 | 0.55 |
| B10 | 0.52 |
| B11 | 0.22 |
| B12 | 0.62 |
| B13 | 0.56 |
| B14 | 0.51 |
| B15 | 0.73 |
| B16 | 0.43 |
| B17 | 0.26 |
| B18 | 0.5 |
| B19 | 0.57 |

biological target: T4, FcγRIa extracellular domain with C-terminal His tag (human, UniProt P12314 16-292); assay: SPR Biacore, relative binding amount
T4 construct: extracellular domain; Soluble receptor expressed in FreeStyle293 cells and used as analyte in Biacore; also called FcgRI; 1a; not shown: His tag at the C terminus
T4 sequence (P12314 16-292): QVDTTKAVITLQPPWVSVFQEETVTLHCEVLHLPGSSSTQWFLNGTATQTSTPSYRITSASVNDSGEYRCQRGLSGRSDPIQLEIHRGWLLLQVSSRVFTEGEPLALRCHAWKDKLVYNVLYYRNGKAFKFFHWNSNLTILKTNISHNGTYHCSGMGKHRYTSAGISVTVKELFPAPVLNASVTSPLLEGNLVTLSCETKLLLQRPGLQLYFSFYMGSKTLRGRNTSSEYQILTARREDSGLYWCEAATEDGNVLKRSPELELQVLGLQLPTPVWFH

| Binder | He/Con_1a |
| --- | --- |
| B20 | 103 % of GpH7-A5/GpH7-B3/GpL16-k0 (=100) |
| B21 | 104 % of GpH7-A5/GpH7-B3/GpL16-k0 (=100) |
| B22 | 102 % of GpH7-A5/GpH7-B3/GpL16-k0 (=100) |
| B23 | 93.7 % of GpH7-A5/GpH7-B3/GpL16-k0 (=100) |
| B24 | 107 % of GpH7-A5/GpH7-B3/GpL16-k0 (=100) |
| B25 | 102 % of GpH7-A5/GpH7-B3/GpL16-k0 (=100) |

biological target: T2, FcγRIIb extracellular domain with …; assay: SPR Biacore, relative binding amount

| Binder | He/Con_2b |
| --- | --- |
| B20 | 79.3 % of GpH7-A5/GpH7-B3/GpL16-k0 (=100) |
| B21 | 80.1 % of GpH7-A5/GpH7-B3/GpL16-k0 (=100) |
| B22 | 64.9 % of GpH7-A5/GpH7-B3/GpL16-k0 (=100) |
| B23 | 44.4 % of GpH7-A5/GpH7-B3/GpL16-k0 (=100) |
| B24 | 73.4 % of GpH7-A5/GpH7-B3/GpL16-k0 (=100) |
| B25 | 62.7 % of GpH7-A5/GpH7-B3/GpL16-k0 (=100) |

biological target: T4, FcγRIa extracellular domain with …; assay: SPR Biacore; relative binding to FcγRIa divided by that to FcγRIIb

| Binder | Ia/IIb He_1a/2b |
| --- | --- |
| B20 | 1.29 ratio of He/Con_1a to He/Con_2b |
| B21 | 1.29 ratio of He/Con_1a to He/Con_2b |
| B22 | 1.58 ratio of He/Con_1a to He/Con_2b |
| B23 | 2.11 ratio of He/Con_1a to He/Con_2b |
| B24 | 1.45 ratio of He/Con_1a to He/Con_2b |
| B25 | 1.64 ratio of He/Con_1a to He/Con_2b |

biological target: T3, FcγRIIb; assay: SPR (Biacore), captured antibody, FcγR analyte; relative to GpH7-A5/GpH7-B3/GpL16-k0 = 100
Method: as §1, §2

| Binder | He/Con_2b |
| --- | --- |
| B1 | 101 relative (control = 100) |
| B2 | 165 relative (control = 100) |
| B3 | 150 relative (control = 100) |
| B4 | 143 relative (control = 100) |
| B5 | 171 relative (control = 100) |
| B26 | 100 relative (control = 100) |
| B6 | 111 relative (control = 100) |
| B27 | 103 relative (control = 100) |
| B7 | 26 relative (control = 100) |
| B8 | 64.4 relative (control = 100) |
| B9 | 95.9 relative (control = 100) |
| B10 | 177 relative (control = 100) |
| B11 | 217 relative (control = 100) |
| B12 | 159 relative (control = 100) |
| B13 | 148 relative (control = 100) |
| B14 | 200 relative (control = 100) |
| B28 | 104 relative (control = 100) |
| B15 | 139 relative (control = 100) |
| B16 | 124 relative (control = 100) |
| B17 | 197 relative (control = 100) |
| B18 | 199 relative (control = 100) |
| B19 | 193 relative (control = 100) |

biological target: T1, FcγRIIa H; assay: as above
Method: as §1, §2

| Binder | He/Con_2aH |
| --- | --- |
| B1 | 56.8 relative (control = 100) |
| B2 | 103 relative (control = 100) |
| B3 | 114 relative (control = 100) |
| B4 | 33.4 relative (control = 100) |
| B5 | 38.1 relative (control = 100) |
| B26 | 99.4 relative (control = 100) |
| B6 | 45.2 relative (control = 100) |
| B27 | 99.8 relative (control = 100) |
| B7 | 20.7 relative (control = 100) |
| B8 | 47.6 relative (control = 100) |
| B9 | 52.5 relative (control = 100) |
| B10 | 92.7 relative (control = 100) |
| B11 | 48.2 relative (control = 100) |
| B12 | 98.3 relative (control = 100) |
| B13 | 83.3 relative (control = 100) |
| B14 | 102 relative (control = 100) |
| B28 | 97.6 relative (control = 100) |
| B15 | 101 relative (control = 100) |
| B16 | 53.1 relative (control = 100) |
| B17 | 52 relative (control = 100) |
| B18 | 100 relative (control = 100) |
| B19 | 110 relative (control = 100) |
